From paper PMC3859963 (Molecular cancer therapeutics, 2013)
Square brackets hold non-standard residues; d marks the D form. Ends that are not written are not given here.

Molecular target: CD44s (UniProt P16070-12 21-361)
Assay: flow cytometry on cells

In the case of [dK][dI][dK][dM][dV][dI][dS][dW][dK]G (also: 5(6)-FAM label, position not given here) [5(6)-FAM-HYD1], the “fold increase of binding versus vector only cells” value is reported as 1.5 fold.
